Test system: active JNK3 purified protein (Upstate)

Protein | in vitro phosphatase activity analysis (JNK3 phosphorylation by western blot) | in vitro phosphatase activity analysis after GSNO treatment of MKP7 | in vitro phosphatase assay (JNK3 phosphorylation by western blot)
Myc-MKP7 (enzyme, UniProt Q9BY84 1-665, looked up, species assumed, full-length Myc tag) MAHEMIGTQIVTERLVALLESGTEKVLLIDSRPFVEYNTSHILEAININCSKLMKRRLQQDKVLITELIQHSAKHKVDIDCSQKVVVYDQSSQDVASLSSDCFLTVLLGKLEKSFNSVHLLAGGFAEFSRCFPGLCEGKSTLVPTCISQPCLPVANIGPTRILPNLYLGCQRDVLNKELMQQNGIGYVLNASNTCPKPDFIPESHFLRVPVNDSFCEKILPWLDKSVDFIEKAKASNGCVLVHCLAGISRSATIAIAYIMKRMDMSLDEAYRFVKEKRPTISPNFNFLGQLLDYEKKIKNQTGASGPKSKLKLLHLEKPNEPVPAVSEGGQKSETPLSPPCADSATSEAAGQRPVHPASVPSVPSVQPSLLEDSPLVQALSGLHLSADRLEDSNKLKRSFSLDIKSVSYSASMAASLHGFSSSEDALEYYKPSTTLDGTNKLCQFSPVQELSEQTPETSPDKEEASIPKKLQTARPSDSQSKRLHSVRTSSSGTAQRSLLSPLHRSGSVEDNYHTSFLFGLSTSQQHLTKSAGLGLKGWHSDILAPQTSTPSLTSSWYFATESSHFYSASAIYGGSASYSAYSCSQLPTCGDQVYSVRRRQKPSDRADSRRSWHEESPFEKQFKRRSCQMEFGESIMSENRSREELGKVGSQSSFSGSMEIIEVS | The ectopically-expressed MKP7 protein exhibited strong phosphatase activity as demonstrated by the decrease in JNK3 phosphorylation | nitrosylation of MKP7 by GSNO markedly inhibited MKP7 phosphatase activity | 
Flag-tagged MKP7-WT (enzyme, UniProt Q9BY84 1-665, looked up, species assumed, full-length Flag tag) MAHEMIGTQIVTERLVALLESGTEKVLLIDSRPFVEYNTSHILEAININCSKLMKRRLQQDKVLITELIQHSAKHKVDIDCSQKVVVYDQSSQDVASLSSDCFLTVLLGKLEKSFNSVHLLAGGFAEFSRCFPGLCEGKSTLVPTCISQPCLPVANIGPTRILPNLYLGCQRDVLNKELMQQNGIGYVLNASNTCPKPDFIPESHFLRVPVNDSFCEKILPWLDKSVDFIEKAKASNGCVLVHCLAGISRSATIAIAYIMKRMDMSLDEAYRFVKEKRPTISPNFNFLGQLLDYEKKIKNQTGASGPKSKLKLLHLEKPNEPVPAVSEGGQKSETPLSPPCADSATSEAAGQRPVHPASVPSVPSVQPSLLEDSPLVQALSGLHLSADRLEDSNKLKRSFSLDIKSVSYSASMAASLHGFSSSEDALEYYKPSTTLDGTNKLCQFSPVQELSEQTPETSPDKEEASIPKKLQTARPSDSQSKRLHSVRTSSSGTAQRSLLSPLHRSGSVEDNYHTSFLFGLSTSQQHLTKSAGLGLKGWHSDILAPQTSTPSLTSSWYFATESSHFYSASAIYGGSASYSAYSCSQLPTCGDQVYSVRRRQKPSDRADSRRSWHEESPFEKQFKRRSCQMEFGESIMSENRSREELGKVGSQSSFSGSMEIIEVS |  |  | Both MKP7-WT and MKP7-ΔC possessed strong phosphatase activities as detected by the decreased phosphorylation of JNK3
Flag-tagged MKP7-ΔC (A.A.1-317, retaining the catalytic domain) (enzyme, UniProt Q9BY84 1-317, looked up, species assumed, Flag tag) MAHEMIGTQIVTERLVALLESGTEKVLLIDSRPFVEYNTSHILEAININCSKLMKRRLQQDKVLITELIQHSAKHKVDIDCSQKVVVYDQSSQDVASLSSDCFLTVLLGKLEKSFNSVHLLAGGFAEFSRCFPGLCEGKSTLVPTCISQPCLPVANIGPTRILPNLYLGCQRDVLNKELMQQNGIGYVLNASNTCPKPDFIPESHFLRVPVNDSFCEKILPWLDKSVDFIEKAKASNGCVLVHCLAGISRSATIAIAYIMKRMDMSLDEAYRFVKEKRPTISPNFNFLGQLLDYEKKIKNQTGASGPKSKLKLLHLE |  |  | Both MKP7-WT and MKP7-ΔC possessed strong phosphatase activities as detected by the decreased phosphorylation of JNK3
Flag-tagged MKP7-ΔC (C244S) (enzyme, UniProt Q9BY84 1-317 with C244S, looked up, species assumed, Flag tag) MAHEMIGTQIVTERLVALLESGTEKVLLIDSRPFVEYNTSHILEAININCSKLMKRRLQQDKVLITELIQHSAKHKVDIDCSQKVVVYDQSSQDVASLSSDCFLTVLLGKLEKSFNSVHLLAGGFAEFSRCFPGLCEGKSTLVPTCISQPCLPVANIGPTRILPNLYLGCQRDVLNKELMQQNGIGYVLNASNTCPKPDFIPESHFLRVPVNDSFCEKILPWLDKSVDFIEKAKASNGCVLVHSLAGISRSATIAIAYIMKRMDMSLDEAYRFVKEKRPTISPNFNFLGQLLDYEKKIKNQTGASGPKSKLKLLHLE |  |  | the phosphatase activity of MKP7-ΔC (C^244S) was much lower than that of MKP7-WT or MKP7-ΔC protein, and the activity after GSNO treatment was essentially unchanged

Source: patent publication US20100272712
